Measurements as given in paper PMC12527216.

What was measured:
[1] = target: recombinant soluble CD4 engineered with a deletion in the transmembrane region but retaining the cytoplasmic tail (UniProt P01730); test: ELISA; as a1, but HIVBaL treated beforehand with 1% (w/w) (110 mM) L-lactic acid at pH 3.8 for 60 min at 37°C
[2] = target: recombinant soluble CD4 engineered with a deletion in the transmembrane region but retaining the cytoplasmic tail (UniProt P01730); test: ELISA; as a1, but HIVBaL treated beforehand with acidified media at pH 3.8 (HCl adjusted) for 60 min at 37°C

virion-associated trimeric gp120 envelope glycoprotein of HIV-1 BaL (on HIVBaL virions) (natural protein)
fold reduction in rCD4 binding relative to untreated HIV-1 [1]: 2 fold | fold reduction in rCD4 binding relative to untreated HIV-1 [2]: 2 fold
